Measured values published in patent US20190338048A1 (published 2019).
Where two headings read alike, the source gives them in different places.

T1: His-tagged recombinant human CD-19 (human, UniProt P15391 20-291, limits assumed)
T1 sequence (looked up): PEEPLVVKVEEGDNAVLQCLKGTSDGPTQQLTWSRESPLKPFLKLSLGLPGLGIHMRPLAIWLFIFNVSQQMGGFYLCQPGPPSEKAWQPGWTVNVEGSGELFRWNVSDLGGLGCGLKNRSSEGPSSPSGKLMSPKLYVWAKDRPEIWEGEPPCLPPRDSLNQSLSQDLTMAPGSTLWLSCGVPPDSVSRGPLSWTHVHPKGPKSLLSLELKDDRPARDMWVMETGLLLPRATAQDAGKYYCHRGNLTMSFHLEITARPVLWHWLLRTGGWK

T2: His-tagged recombinant human CD-19 (human, UniProt P15391 20-291, limits assumed)
T2 sequence (looked up): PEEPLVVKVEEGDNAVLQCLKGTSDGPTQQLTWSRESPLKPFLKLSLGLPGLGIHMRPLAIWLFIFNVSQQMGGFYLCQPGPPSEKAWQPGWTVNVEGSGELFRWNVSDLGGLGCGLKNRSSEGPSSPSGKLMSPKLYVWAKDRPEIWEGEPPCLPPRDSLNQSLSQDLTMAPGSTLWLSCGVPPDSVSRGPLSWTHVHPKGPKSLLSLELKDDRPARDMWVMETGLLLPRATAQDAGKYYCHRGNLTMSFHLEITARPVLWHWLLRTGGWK


Experiments:
Assay in all cases: SPR
Recombinant human IL-17A [1] = molecular target: T3, Recombinant human IL-17A (human, UniProt Q16552 20-155, limits assumed)
T3 sequence (Q16552 20-155 limits assumed): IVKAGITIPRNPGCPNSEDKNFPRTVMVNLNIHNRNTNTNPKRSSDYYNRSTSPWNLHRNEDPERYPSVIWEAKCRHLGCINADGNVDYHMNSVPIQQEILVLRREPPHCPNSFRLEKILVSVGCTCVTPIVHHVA

Recombinant human IL-17A [2] = molecular target: T3, Recombinant human IL-17A; remark: listed apart in the source
Recombinant human IL-17A [3] = molecular target: T4, Recombinant human IL-17A (human, UniProt Q16552 20-155, limits assumed); remark: listed apart in the source
T4 sequence (Q16552 20-155 limits assumed): as above

Recombinant human IL-17A [4] = molecular target: T4, Recombinant human IL-17A; remark: listed apart in the source
[5] = molecular target: T1, His-tagged recombinant human CD-19
[6] = molecular target: T1, His-tagged recombinant human CD-19; remark: listed apart in the source
[7] = molecular target: T2, His-tagged recombinant human CD-19; remark: listed apart in the source
[8] = molecular target: T2, His-tagged recombinant human CD-19; remark: listed apart in the source

| Kd (Recombinant human IL-17A [1]) | Difference in H1L1 log(KD) from wild type (Recombinant human IL-17A [2]) | Kd (Recombinant human IL-17A [3]) | Difference in H1L1 log(KD) from wild type (Recombinant human IL-17A [4]) | Kd [5] | Difference in H2L2 log(KD) from wild type [6] | Kd [7] | Difference in H2L2 log(KD) from wild type [8] | Binder |
| --- | --- | --- | --- | --- | --- | --- | --- | --- |
|  |  | 0.29 nM | 0.11 log(KD) | 54.9 nM | 0.09 log(KD) |  |  | Design 3931 bispecific antibody, System B (CAT-2200 H1/L1 & SGN-CD19a H2/L2) (bispecific antibody) chain 1: not shown chain 2: NFMLTQPHSVSESPGKTVTISCTRSSGSLANYYVQWYQQRPGSSPTIVIFANNQRPSGVPDRFSGSIDSSSNSASLTISGLKTEDEADYYCQTYDPYSVVFGGGTKLTVLGQPKAAPSVTLFPPSSEELQANKATLVCLISDFYPGAVTVAWKADSSPVKAGVETTTPSKQSNNKYAASSKLSLTPEQWKSHRSYSCQVTHEGSTVEKTVAPTECS chain 3: not shown chain 4: EIVLTQSPATLSLSPGERATLSCSASSSVSYMHWYQQKPGQAPRLLIYDTSKLASGIPARFSGSGSGTDFTLTISSLEPEDFAVYYCFQGSVYPFTFGQGTKLEIKRTVAAPSVFIFPPSDEQLKSGTASVGCLLNNFYPREAKVQWKVDNALQSGNSQESVTEQDSKDSTYSLDSTLTLSKADYEKHKVYACEVTHQGLSSPVTKSFNRGEC |
|  |  | 0.37 nM | -0.11 log(KD) |  |  |  |  | Design 3967 bispecific antibody, System A (CAT-2200 H1/L1 & Pertuzumab H2/L2) (bispecific antibody) chain 1: not shown chain 2: NFMLTQPHSVSESPGKTVTISCTRSSGSLANYYVQWYQQRPGSSPTIVIFANNQRPSGVPDRFSGSIDSSSNSASLTISGLKTEDEADYYCQTYDPYSVVFGGGTKLTVLGQPKAAPSVTLFPPSDEELQANTATLVCLISDFYPGAVTVAWKADSSPVKAGVETTTPSKQSNNKYAAESELSLTPEQWKSHRSYSCQVTHEGSTVEKTVAPTECS chain 3: not shown chain 4: DIQMTQSPSSLSASVGDRVTITCKASQDVSIGVAWYQQKPGKAPKLLIYSASYRYTGVPSRFSGSGSGTDFTLTISSLQPEDFATYYCQQYYIYPYTFGQGTKVEIKRTVAAPSVFIFPPKDERLKSGTASVVCLLNNFYPREAKVQWKVDNALQSGNSQESVTEQDSKDSTYSLSSRLTLSKADYEKHKVYACEVTHQGLSSPVTKSFNRGEC |
| 0.44 nM | -0.2 |  |  |  |  | 216 nM | 0.02 | Design 3113 bispecific antibody, System B (CAT-2200 H1/L1 & SGN-CD19a H2/L2) (bispecific antibody) chain 1: not shown chain 2: NFMLTQPHSVSESPGKTVTISCTRSSGSLANYYVQWYQQRPGSSPTIVIFANNQRPSGVPDRFSGSIDSSSNSASLTISGLKTEDEADYYCQTYDPYSVVFGGGTKLTVLGQPKAAPSVTLFPPSSEELQANKATLDCLISDFYPGAVTVAWKADSSPVKAGVETTTPSKQSNNKYAASSTLSLTPEQWKSHRSYSCQVTHEGSTVEKTVAPTECS chain 3: not shown chain 4: EIVLTQSPATLSLSPGERATLSCSASSSVSYMHWYQQKPGQAPRLLIYDTSKLASGIPARFSGSGSGTDFTLTISSLEPEDFAVYYCFQGSVYPFTFGQGTKLEIKRTVAAPSVFIFPPSDEQLKSGTARVGCLLNNFYPREAKVQWKVDNALQSGNSQESVTEQDSKDSTYSLRSTLTLSKADYEKHKVYACEVTHQGLSSPVTKSFNRGEC |
|  |  | 0.44 nM | -0.07 log(KD) |  |  |  |  | Design 3931 bispecific antibody, System A (CAT-2200 H1/L1 & Pertuzumab H2/L2) (bispecific antibody) chain 1: not shown chain 2: NFMLTQPHSVSESPGKTVTISCTRSSGSLANYYVQWYQQRPGSSPTIVIFANNQRPSGVPDRFSGSIDSSSNSASLTISGLKTEDEADYYCQTYDPYSVVFGGGTKLTVLGQPKAAPSVTLFPPSSEELQANKATLVCLISDFYPGAVTVAWKADSSPVKAGVETTTPSKQSNNKYAASSKLSLTPEQWKSHRSYSCQVTHEGSTVEKTVAPTECS chain 3: not shown chain 4: DIQMTQSPSSLSASVGDRVTITCKASQDVSIGVAWYQQKPGKAPKLLIYSASYRYTGVPSRFSGSGSGTDFTLTISSLQPEDFATYYCQQYYIYPYTFGQGTKVEIKRTVAAPSVFIFPPSDEQLKSGTASVGCLLNNFYPREAKVQWKVDNALQSGNSQESVTEQDSKDSTYSLDSTLTLSKADYEKHKVYACEVTHQGLSSPVTKSFNRGEC |
|  |  | 0.38 nM | -0.13 log(KD) | 36.1 nM | 0.27 log(KD) |  |  | Design 3967 bispecific antibody, System B (CAT-2200 H1/L1 & SGN-CD19a H2/L2) (bispecific antibody) chain 1: not shown chain 2: NFMLTQPHSVSESPGKTVTISCTRSSGSLANYYVQWYQQRPGSSPTIVIFANNQRPSGVPDRFSGSIDSSSNSASLTISGLKTEDEADYYCQTYDPYSVVFGGGTKLTVLGQPKAAPSVTLFPPSDEELQANTATLVCLISDFYPGAVTVAWKADSSPVKAGVETTTPSKQSNNKYAAESELSLTPEQWKSHRSYSCQVTHEGSTVEKTVAPTECS chain 3: not shown chain 4: EIVLTQSPATLSLSPGERATLSCSASSSVSYMHWYQQKPGQAPRLLIYDTSKLASGIPARFSGSGSGTDFTLTISSLEPEDFAVYYCFQGSVYPFTFGQGTKLEIKRTVAAPSVFIFPPKDERLKSGTASVVCLLNNFYPREAKVQWKVDNALQSGNSQESVTEQDSKDSTYSLSSRLTLSKADYEKHKVYACEVTHQGLSSPVTKSFNRGEC |

Second part, the binder before the results:

| Binder | Kd (Recombinant human IL-17A [1]) | Difference in H1L1 log(KD) from wild type (Recombinant human IL-17A [2]) | Kd (Recombinant human IL-17A [3]) | Difference in H1L1 log(KD) from wild type (Recombinant human IL-17A [4]) | Kd [5] | Difference in H2L2 log(KD) from wild type [6] | Kd [7] | Difference in H2L2 log(KD) from wild type [8] |
| --- | --- | --- | --- | --- | --- | --- | --- | --- |
| Design 2979 bispecific antibody, System A (CAT-2200 H1/L1 & Pertuzumab H2/L2) (bispecific antibody) chain 1: not shown chain 2: NFMLTQPHSVSESPGKTVTISCTRSSGSLANYYVQWYQQRPGSSPTIVIFANNQRPSGVPDRFSGSIDSSSNSASLTISGLKTEDEADYYCQTYDPYSVVFGGGTKLTVLGQPKAAPSVTLFPPSSEELQANKATLVCLISDFYPGAVTVAWKADSSPVKAGVETTTPSKQSNNKYAAESELSLTPEQWKSHRSYSCQVTHEGSTVEKTVAPTECS chain 3: not shown chain 4: DIQMTQSPSSLSASVGDRVTITCKASQDVSIGVAWYQQKPGKAPKLLIYSASYRYTGVPSRFSGSGSGTDFTLTISSLQPEDFATYYCQQYYIYPYTFGQGTKVEIKRTVAAPSVFIFPPSDEQLKSGTARVGCLLNNFYPREAKVQWKVDNALQSGNSQESVTEQDSKDSTYSLRSTLTLSKADYEKHKVYACEVTHQGLSSPVTKSFNRGEC | 0.31 nM | -0.03 |  |  |  |  |  |  |
| Design 2994 bispecific antibody, System A (CAT-2200 H1/L1 & Pertuzumab H2/L2) (bispecific antibody) chain 1: not shown chain 2: NFMLTQPHSVSESPGKTVTISCTRSSGSLANYYVQWYQQRPGSSPTIVIFANNQRPSGVPDRFSGSIDSSSNSASLTISGLKTEDEADYYCQTYDPYSVVFGGGTKLTVLGQPKAAPSVTLFPPSSEQLQANKAKLVCLISDFYPGAVTVAWKADSSPVKAGVETTTPSKQSNNKYAASSYLSLTPEQWKSHRSYSCQVTHEGSTVEKTVAPTECS chain 3: not shown chain 4: DIQMTQSPSSLSASVGDRVTITCKASQDVSIGVAWYQQKPGKAPKLLIYSASYRYTGVPSRFSGSGSGTDFTLTISSLQPEDFATYYCQQYYIYPYTFGQGTKVEIKRTVAAPSVFIFPPSDEELKSGTASVDCLLNNFYPREAKVQWKVDNALQSGNSQESVTEQDSKDSTYSLSSTLTLSKADYEKHKVYACEVTHQGLSSPVTKSFNRGEC |  |  | 0.45 nM | -0.08 log(KD) |  |  |  |  |
| Design 3113 bispecific antibody, System A (CAT-2200 H1/L1 & Pertuzumab H2/L2) (bispecific antibody) chain 1: not shown chain 2: NFMLTQPHSVSESPGKTVTISCTRSSGSLANYYVQWYQQRPGSSPTIVIFANNQRPSGVPDRFSGSIDSSSNSASLTISGLKTEDEADYYCQTYDPYSVVFGGGTKLTVLGQPKAAPSVTLFPPSSEELQANKATLDCLISDFYPGAVTVAWKADSSPVKAGVETTTPSKQSNNKYAASSTLSLTPEQWKSHRSYSCQVTHEGSTVEKTVAPTECS chain 3: not shown chain 4: DIQMTQSPSSLSASVGDRVTITCKASQDVSIGVAWYQQKPGKAPKLLIYSASYRYTGVPSRFSGSGSGTDFTLTISSLQPEDFATYYCQQYYIYPYTFGQGTKVEIKRTVAAPSVFIFPPSDEQLKSGTARVGCLLNNFYPREAKVQWKVDNALQSGNSQESVTEQDSKDSTYSLRSTLTLSKADYEKHKVYACEVTHQGLSSPVTKSFNRGEC | 0.39 nM | -0.14 |  |  |  |  |  |  |
| Design 2979 bispecific antibody, System B (CAT-2200 H1/L1 & SGN-CD19a H2/L2) (bispecific antibody) chain 1: not shown chain 2: NFMLTQPHSVSESPGKTVTISCTRSSGSLANYYVQWYQQRPGSSPTIVIFANNQRPSGVPDRFSGSIDSSSNSASLTISGLKTEDEADYYCQTYDPYSVVFGGGTKLTVLGQPKAAPSVTLFPPSSEELQANKATLVCLISDFYPGAVTVAWKADSSPVKAGVETTTPSKQSNNKYAAESELSLTPEQWKSHRSYSCQVTHEGSTVEKTVAPTECS chain 3: not shown chain 4: EIVLTQSPATLSLSPGERATLSCSASSSVSYMHWYQQKPGQAPRLLIYDTSKLASGIPARFSGSGSGTDFTLTISSLEPEDFAVYYCFQGSVYPFTFGQGTKLEIKRTVAAPSVFIFPPSDEQLKSGTARVGCLLNNFYPREAKVQWKVDNALQSGNSQESVTEQDSKDSTYSLRSTLTLSKADYEKHKVYACEVTHQGLSSPVTKSFNRGEC | 0.39 nM | -0.14 |  |  |  |  | 149 nM | 0.18 |
| Design 2994 bispecific antibody, System B (CAT-2200 H1/L1 & SGN-CD19a H2/L2) (bispecific antibody) chain 1: not shown chain 2: NFMLTQPHSVSESPGKTVTISCTRSSGSLANYYVQWYQQRPGSSPTIVIFANNQRPSGVPDRFSGSIDSSSNSASLTISGLKTEDEADYYCQTYDPYSVVFGGGTKLTVLGQPKAAPSVTLFPPSSEQLQANKAKLVCLISDFYPGAVTVAWKADSSPVKAGVETTTPSKQSNNKYAASSYLSLTPEQWKSHRSYSCQVTHEGSTVEKTVAPTECS chain 3: not shown chain 4: EIVLTQSPATLSLSPGERATLSCSASSSVSYMHWYQQKPGQAPRLLIYDTSKLASGIPARFSGSGSGTDFTLTISSLEPEDFAVYYCFQGSVYPFTFGQGTKLEIKRTVAAPSVFIFPPSDEELKSGTASVDCLLNNFYPREAKVQWKVDNALQSGNSQESVTEQDSKDSTYSLSSTLTLSKADYEKHKVYACEVTHQGLSSPVTKSFNRGEC |  |  | 0.28 nM | 0.12 log(KD) | 49.7 nM | 0.16 log(KD) |  |  |
